Values joined by “and” are separate entries in the source; they are usually repeats but may differ in a detail not shown here. Equal entries are not always repeated. Blank lines part the entries; values can stand above or below the binder they belong to.
Assays:
[1] = molecular target: T1, Recombinant human PD-1-Fc (human, UniProt Q15116 25-167); experiment: competition
[2] = molecular target: T1, Recombinant human PD-1-Fc; experiment: competition ELISA; blocking PD-1/PD-L2
[3] = molecular target: T1, Recombinant human PD-1-Fc; experiment: competition ELISA; blocking PD-1/PD-L1
[4] = molecular target: human HER2 (Beijing Yiyi) (human, UniProt P04626 23-652); experiment: ELISA
[5] = molecular target: Recombinant human PD-1 (Beijing Yiqiao Shenzhou, Cat. No. 10377-H08H) (human, UniProt Q15116 25-167); experiment: ELISA

B2: PD-1 MONOCLONAL ANTIBODYBJHM (antibody, V domains shown)
VH: EVQLQESGGGLVKPGGSLKLSCAASGFTFSSYGMSWVRQTPEKRLEWVASISGGGRYTYYPDSMKGRFTISRDNAKNNLHLQMSSLRSEDTALYYCVYEYFYTMDYWGQGTSVTVSS
VL: DIVLTQSPATLSVTPGDSVSLSCRANQSISNNLHWYQQRSHESPRLLIRFASQSISGIPSRFSGSGSGTDFTLSINSVETEDFGMYFCQQSDNWPLTFGAGTKLEIK
IC50 [2]: > 1.11 nM
IC50 [3]: > 1.2 nM
EC50 [4]: > 20 nM
EC50 [5]: > 0.08 nM

B3: PD-1 MONOCLONAL ANTIBODYpem (antibody, V domains shown)
VH: QVQLVQSGVEVKKPGASVKVSCKASGYTFTNYYMYWVRQAPGQGLEWMGGINPSNGGTNFNEKFKNRVTLTTDSSTTTAYMELKSLQFDDTAVYYCARRDYRFDMGFDYWGQGTTVTVSS
VL: EIVLTQSPATLSLSPGERATLSCRASKGVSTSGYSYLHWYQQKPGQAPRLLIYLASYLESGVPARFSGSGSGTDFTLTISSLEPEDFAVYYCQHSRDLPLTFGGGTKVEIK
EC50 [4]: > 20 nM

The next lines start with the values.

IC50 [1]: 3.68 nM and 4.54 nM
B1: anti-PD-1pem/anti-HER2 heterodimeric bispecific antibody (bispecific antibody)
heavy 1: not shown
light 1: EIVLTQSPATLSLSPGERATLSCRASKGVSTSGYSYLHWYQQKPGQAPRLLIYLASYLESGVPARFSGSGSGTDFTLTISSLEPEDFAVYYCQHSRDLPLTFGGGTKVEIKRTVAAPSVFIFPPSDEQLKSGTASVVCLLNNFYPREAKVQWKVDNALQSGNSQESVTEQDSKDSTYSLSSTLTLSKADYEKHKVYACEVTHQGLSSPVTKSFNRGEC
heavy 2: not shown
light 2: not shown

IC50 [1]: 2.06 nM and 1.95 nM
B4: anti-PD-1BJHM/anti-HER2 heterodimeric bispecific antibody (bispecific antibody)
heavy 1: not shown
light 1: DIVLTQSPATLSVTPGDSVSLSCRANQSISNNLHWYQQRSHESPRLLIRFASQSISGIPSRFSGSGSGTDFTLSINSVETEDFGMYFCQQSDNWPLTFGAGTKLEIKRTVAAPSVFIFPPSDEQLKSGTASVVCLLNNFYPREAKVQWKVDNALQSGNSQESVTEQDSKDSTYSLSSTLTLSKADYEKHKVYACEVTHQGLSSPVTKSFNRGEC
heavy 2: not shown
light 2: not shown

Source: patent US20190367633A1 (published 2019)
